In PMC6368585, “Chaperone activation and client binding of a 2-cysteine peroxiredoxin” (Nature Communications, 2019):

B1: reduced, decameric Leishmania infantum mitochondrial 2-Cys peroxiredoxin mTXNPx (mTXNPxred) (enzyme)
chain: GSHMNLDYQMYRTATVREAAPQFSGQAVVNGAIKDINMNDYKGKYIVLFFYPMDFTFVCPTEIIAFSDRHADFEKLNTQVVAVSCDSVYSHLAWVNTPRKKGGLGEMHIPVLADKSMEIARDYGVLIEESGIALRGLFIIDKKGILRHSTINDLPVGRNVDEALRVLEAFQYADENGDAIPCGWKPGQPTLDTTKAGEFFEKNM
notes: Reduced form, decamer of five dimers; also called Prx1m; wt mTXNPx; source: E. coli BL21(DE3), purified; His tag removed with thrombin; reduced with 5 mM DTT; not shown: His6, N-terminal, cleaved; copies: 10

How the values were obtained:
[1] = molecular target: luciferase (thermally unfolded model client) [luciferase: P08659]
luciferase (thermally unfolded model client) [luciferase: P08659], sequence (P08659 whole entry): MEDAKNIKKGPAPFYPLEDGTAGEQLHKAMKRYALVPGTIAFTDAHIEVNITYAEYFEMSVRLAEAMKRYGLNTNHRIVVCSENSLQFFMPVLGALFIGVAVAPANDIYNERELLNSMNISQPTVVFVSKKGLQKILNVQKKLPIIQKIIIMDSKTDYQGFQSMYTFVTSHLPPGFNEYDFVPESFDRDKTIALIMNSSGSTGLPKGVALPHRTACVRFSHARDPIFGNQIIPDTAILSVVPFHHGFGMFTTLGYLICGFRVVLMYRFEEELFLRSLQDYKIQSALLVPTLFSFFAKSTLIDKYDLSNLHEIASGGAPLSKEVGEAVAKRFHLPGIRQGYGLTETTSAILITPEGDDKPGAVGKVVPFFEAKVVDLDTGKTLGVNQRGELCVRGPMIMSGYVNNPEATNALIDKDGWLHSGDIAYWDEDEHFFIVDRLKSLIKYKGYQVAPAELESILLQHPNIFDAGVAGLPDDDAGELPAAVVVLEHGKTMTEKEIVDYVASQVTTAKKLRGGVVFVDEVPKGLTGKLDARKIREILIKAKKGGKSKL

[2] = molecular target: T1, luciferase (thermally unfolded model client) (UniProt P08659 1-550 = luciferase); experiment: AUC; analytical ultracentrifugation of mTXNPxred with luciferase (Supplemental Methods); conditions: both partners purified
T1 construct: luciferase, 63 kDa; cross-links were mapped onto the whole-chain model pdb 1LCI; source: bought: Promega
T1 sequence (P08659 whole entry): as above

[3] = molecular target: the molecule itself; experiment: cross-linking; quantitative cross-linking (qCL) with isotopically light or heavy DSS (0.1 mM), each condition (Red or Ox, 30 °C or 42 °C) cross-linked apart and mixed 1:1; log2(H/L) of inter-protein K122/K123 peptide pairs across the dimer-dimer (A-type) interface; decamer to dimers

| Molecule | chaperone activity: suppression of the thermal aggregation of luciferase (0.1 µM, 42 °C, light scattering at 360 nm), different ratios up to a 40-fold molar excess, compared to wt-mTXNPx (% less active than wt-mTXNPx) [1] | stoichiometry N [2] | log2(H/L) of inter-protein cross-link Pep1-Pep1, heavy Red (42 °C) over light Red (30 °C) [3] [log2 ratio] | log2(H/L) of inter-protein cross-link Pep1-Pep2, heavy Red (30 °C) over light Red (42 °C) [3] [log2 ratio] | log2(H/L) of inter-protein cross-link Pep1-Pep2, heavy Red (42 °C) over light Red (30 °C) [3] [log2 ratio] |
| --- | --- | --- | --- | --- | --- |
| ∆5mTXNPx, N-terminal truncation mutant lacking the first 5 residues of the mature protein (reduced) (from UniProt A0A6L0XFC6 33-226) (enzyme) | > 70 | – | – | – | – |
| B1 | – | 1 luciferase per mTXNPx decamer | -2.32 | 1.4 | -1.55 |
